From IntAct's records for PubMed 23085988

B1: Sorting nexin-8 (Homo sapiens), Q9Y5X2 (parent)
chain: MTGRAMDPLPAAAVGAAAEAEADEEADPPASDLPTPQAIEPQAIVQQVPAPSRMQMPQGNPLLLSHTLQELLARDTVQVELIPEKKGLFLKHVEYEVSSQRFKSSVYRRYNDFVVFQEMLLHKFPYRMVPALPPKRMLGADREFIEARRRALKRFVNLVARHPLFSEDVVLKLFLSFSGSDVQNKLKESAQCVGDEFLNCKLATRAKDFLPADIQAQFAISRELIRNIYNSFHKLRDRAERIASRAIDNAADLLIFGKELSAIGSDTTPLPSWAALNSSTWGSLKQALKGLSVEFALLADKAAQQGKQEENDVVEKLNLFLDLLQSYKDLCERHEKGVLHKHQRALHKYSLMKRQMMSATAQNREPESVEQLESRIVEQENAIQTMELRNYFSLYCLHQETQLIHVYLPLTSHILRAFVNSQIQGHKEMSKVWNDLRPKLSCLFAGPHSTLTPPCSPPEDGLCPH

Variants of: B1
Settings: with snx1_human SNX1, Q13596
snx1_human SNX1, Q13596, sequence (Q13596 whole entry): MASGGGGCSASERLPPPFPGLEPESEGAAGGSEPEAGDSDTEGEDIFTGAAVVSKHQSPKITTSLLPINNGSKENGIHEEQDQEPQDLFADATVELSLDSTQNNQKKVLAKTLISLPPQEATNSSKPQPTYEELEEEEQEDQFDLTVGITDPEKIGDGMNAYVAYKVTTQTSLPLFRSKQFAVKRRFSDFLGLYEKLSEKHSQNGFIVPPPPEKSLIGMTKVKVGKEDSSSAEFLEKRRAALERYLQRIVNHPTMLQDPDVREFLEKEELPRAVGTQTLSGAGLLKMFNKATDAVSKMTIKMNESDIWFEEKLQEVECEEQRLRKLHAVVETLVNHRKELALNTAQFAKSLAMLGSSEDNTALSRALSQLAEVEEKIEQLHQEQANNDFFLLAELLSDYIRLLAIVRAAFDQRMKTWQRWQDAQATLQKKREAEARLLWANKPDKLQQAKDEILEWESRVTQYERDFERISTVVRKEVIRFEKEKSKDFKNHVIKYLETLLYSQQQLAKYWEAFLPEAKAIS

Variant | effect of a mutation on the interaction
E310I | increasing interaction
